The assay relates to normal human keratinocyte monolayer (NHK). Nature of the assay: Scratch assay, migration of NHK. It counts as cell-based. As to conditions: EGF 100 ng/ml; 5 hours. As for the experimental part:
Scratch Assay: a lesion was performed on a mat of normal human keratinocyte monolayer (NHK) at confluence before treatment with BCP extract at 0.01% and 0.05% dry matter or with EGF (Epidermal Growth Factor) at 100 ng/ml. A photo was taken at the start of treatment and after 5 hours of incubation in order to measure the rate of progression of the HCNs within the lesion. The percentage of coverage was evaluated under the different conditions by image analysis. The significance of the results was assessed by Student's t test.

Marks after values point to notes of the source that are not given here.

B1: EGF: Epidermal Growth Factor, reference in the scratch assay (protein, UniProt P01133 23-1207, looked up)
Pro-epidermal growth factor: PQHWSCPEGTLAGNGNSTCVGPAPFLIFSHGNSIFRIDTEGTNYEQLVVDAGVSVIMDFHYNEKRIYWVDLERQLLQRVFLNGSRQERVCNIEKNVSGMAINWINEEVIWSNQQEGIITVTDMKGNNSHILLSALKYPANVAVDPVERFIFWSSEVAGSLYRADLDGVGVKALLETSEKITAVSLDVLDKRLFWIQYNREGSNSLICSCDYDGGSVHISKHPTQHNLFAMSLFGDRIFYSTWKMKTIWIANKHTGKDMVRINLHSSFVPLGELKVVHPLAQPKAEDDTWEPEQKLCKLRKGNCSSTVCGQDLQSHLCMCAEGYALSRDRKYCEDVNECAFWNHGCTLGCKNTPGSYYCTCPVGFVLLPDGKRCHQLVSCPRNVSECSHDCVLTSEGPLCFCPEGSVLERDGKTCSGCSSPDNGGCSQLCVPLSPVSWECDCFPGYDLQLDEKSCAASGPQPFLLFANSQDIRHMHFDGTDYGTLLSQQMGMVYALDHDPVENKIYFAHTALKWIERANMDGSQRERLIEEGVDVPEGLAVDWIGRRFYWTDRGKSLIGRSDLNGKRSKIITKENISQPRGIAVHPMAKRLFWTDTGINPRIESSSLQGLGRLVIASSDLIWPSGITIDFLTDKLYWCDAKQSVIEMANLDGSKRRRLTQNDVGHPFAVAVFEDYVWFSDWAMPSVMRVNKRTGKDRVRLQGSMLKPSSLVVVHPLAKPGADPCLYQNGGCEHICKKRLGTAWCSCREGFMKASDGKTCLALDGHQLLAGGEVDLKNQVTPLDILSKTRVSEDNITESQHMLVAEIMVSDQDDCAPVGCSMYARCISEGEDATCQCLKGFAGDGKLCSDIDECEMGVPVCPPASSKCINTEGGYVCRCSEGYQGDGIHCLDIDECQLGEHSCGENASCTNTEGGYTCMCAGRLSEPGLICPDSTPPPHLREDDHHYSVRNSDSECPLSHDGYCLHDGVCMYIEALDKYACNCVVGYIGERCQYRDLKWWELRHAGHGQQQKVIVVAVCVVVLVMLLLLSLWGAHYYRTQKLLSKNPKNPYEESSRDVRSRRPADTEDGMSSCPQPWFVVIKEHQDLKNGGQPVAGEDGQAADGSMQPTSWRQEPQLCGMGTEQGCWIPVSSDKGSCPQVMERSFHMPSYGTQTLEGGVEKPHSLLSANPLWQQRALDPPHQMELTQ
modifications: Pro-epidermal growth factor
As for B1, the “Evolution compared to the control” value is reported as “+85% **”.

For the origin of these results see US20230277613A1, “Polysaccharide-Rich Bombax Costatum Flower Extract” (priority 2020, published 2023).
